Consider 1 protein from publication PMC6540902, “A simple, robust, universal assay for real-time enzyme monitoring by signalling changes in nucleoside phosphate anion concentration using a europium(III)-based anion receptor” (Chemical Science, 2019).

Substrate in this data set: CC(C)C[C@H](NC(=O)[C@H](CO)NC(=O)[C@H](C)NC(=O)[C@H](CCCNC(=N)N)NC(=O)[C@H](CCCNC(=N)N)NC(=O)[C@@H](N)CC(C)C)C(=O)NCC(=O)O
Put plainly: Michaelis-Menten substrate titration (Km) by real-time Eu(III) luminescence. It counts as biochemical, Homo sapiens. The note with it: ATP, Mg2+.

B1: Aurora A kinase (AurA) (Homo sapiens) (protein)
chain: MDRSKENCISGPVKATAPVGGPKRVLVTQQFPCQNPLPVNSGQAQRVLCPSNSSQRIPLQAQKLVSSHKPVQNQKQKQLQATSVPHPVSRPLNNTQKSKQPLPSAPENNPEEELASKQKNEESKKRQWALEDFEIGRPLGKGKFGNVYLAREKQSKFILALKVLFKAQLEKAGVEHQLRREVEIQSHLRHPNILRLYGYFHDATRVYLILEYAPLGTVYRELQKLSKFDEQRTATYITELANALSYCHSKRVIHRDIKPENLLLGSAGELKIADFGWSVHAPSSRRTTLCGTLDYLPPEMIEGRMHDEKVDLWSLGVLCYEFLVGKPPFEANTYQETYKRISRVEFTFPDFVTEGARDLISRLLKHNPSQRPMLREVLEHPWITANSSKPSNCQNKESASKQS
Turning to B1, the Km (usually the concentration of substrate that gives half-maximal velocity) was found to be 176 ± 29 µM.
